Results reported in paper PMC6172220, “Calcineurin B homologous protein 3 binds with high affinity to the CHP binding domain of the human sodium/proton exchanger NHE1” (Scientific Reports, 2006).
Values joined by “and” are separate entries in the source; they are usually repeats but may differ in a detail not shown here. Identical values can stand only once.

B1: MBP-CBD: CHP-binding region of human NHE1 (residues 503-545) fused to maltose-binding protein at its amino-terminus (domain or fragment, UniProt P19634 503-545, looked up)
chain: VDLLAVKKKQETKRSINEEIHTQFLDHLLTGIEDICGHYGHHH
notes: also called MBP-CBD^NHE1; NHE1-CBD; source: E. coli BL21 (DE3), purified (IMAC, SEC on Superdex 200); not shown: MBP, N-terminal, kept; His8, C-terminal, kept
B2: MBP-CBD: CHP-binding region of human NHE1 (residues 503-545) fused to maltose-binding protein (domain or fragment, UniProt P19634 503-545, looked up)
chain: B1 chain
notes: The TEV site is printed without Tyr; No site for removal of the C-terminal His8 is described; also called MBP-CBD^NHE1; NHE1-CBD; source: E. coli BL21 (DE3), purified (IMAC, SEC); not shown: MBP (E. coli malE; UniProtKB P0AEX9 residues 27-393), N-terminal, kept
B3: human calcineurin B homologous protein 3 (CHP3), hexa-histidine tagged (natural protein, UniProt Q96BS2 2-214, looked up)
chain: GAAHSASEEVRELEGKTGFSSDQIEQLHRRFKQLSGDQPTIRKENFNNVPDLELNPIRSKIVRAFFDNRNLRKGPSGLADEINFEDFLTIMSYFRPIDTTMDEEQVELSRKEKLRFLFHMYDSDSDGRITLEEYRNVVEELLSGNPHIEKESARSIADGAMMEAASVCMGQMEPDQVYEGITFEDFLKIWQGIDIETKMHVRFLNMETMALCH
B4: human calcineurin B homologous protein 3 (CHP3), hexa-histidine tagged (natural protein, UniProt Q96BS2 2-214, looked up)
chain: B3 chain
modifications: fluorescent label NT647, randomly attached, labelling efficiency about 30% (MST only)

Assays:
Details in all cases: both partners purified
[1] = target: B3; assay: ITC; CHP3 (nominal 200 uM) in the syringe injected into MBP-CBD (nominal 20 uM) in the cell, 57 injections, 25 °C; 20 mM HEPES, 150 mM NaCl, 10 mM MgCl2, 5 mM TCEP, pH 7.2; biological triplicates, raw data: each data set fitted freely (KD, dH, n, offset)
[2] = target: B3; assay: ITC; the same titrations (CHP3 in the syringe, MBP-CBD in the cell, 25 °C, ITC buffer pH 7.2) refitted one by one after the triple-shift correction: corrected active concentrations of CHP3 and MBP-CBD, dH fixed to the average of the raw fits, n = 1 by the correction
[3] = target: B4; assay: MST; NT647-labelled CHP3 at 10 nM, MBP-CBD titrated in 16 steps of 1:1 dilution; 20 mM HEPES, 150 mM NaCl, 0.05% Tween-20, 10 mM MgCl2, 5 mM TCEP, pH 7.2; 22 °C; bimolecular binding model; three biological replicates of five technical replicates each
[4] = target: B4; assay: ITC; 200 uM CHP3 in the syringe injected into 20 uM MBP-CBD in the cell, 57 injections, 25 °C; 20 mM HEPES, 150 mM NaCl, 10 mM MgCl2, 5 mM TCEP, pH 7.2; global fit of three concentration-corrected biological replicates assuming n = 1
[5] = target: B1; assay: ITC; CHP3 (nominal 200 uM) in the syringe injected into MBP-CBD (nominal 20 uM) in the cell, 57 injections, 25 °C; 20 mM HEPES, 150 mM NaCl, 10 mM MgCl2, 5 mM TCEP, pH 7.2; biological triplicates, raw data: each data set fitted freely (KD, dH, n, offset)
[6] = target: B1; assay: ITC; the same titrations (CHP3 in the syringe, MBP-CBD in the cell, 25 °C, ITC buffer pH 7.2) refitted one by one after the triple-shift correction: corrected active concentrations of CHP3 and MBP-CBD, dH fixed to the average of the raw fits, n = 1 by the correction
[7] = target: B2; assay: SEC; analytical SEC, Superdex 200 10/300 GL; 20 uM samples mixed equimolar (250 ul each); 20 mM HEPES, 150 mM NaCl, 1 mM TCEP, pH 7.2; peak fractions checked by SDS-PAGE

B1 was tested, and the Kd [1] was 3 nM and 2.4 nM and 4.5 nM and 3.3 nM and the Kd [2] was 3.1 nM and 2.1 nM and 5.1 nM and 3.4 nM.

B2 was tested, and the Kd [3] was 62.7 nM and 54.8 nM and 49 nM and 55.5 nM and the Kd [4] was 3 nM.

With B3 the “stoichiometry N” value [5] was 0.97 and 1.2 and 1.1 and 1.09 and the “stoichiometry N” value [6] was 1.

In the case of B4, the “stoichiometry N” value [7] is reported as 1.
